Results on two molecules are retold here after patent publication US20100183642A1 (CENTRE NATIONAL DE LA RECHERCHE SCIENTIFIQUE, published 2010).

Non-standard residues stand in square brackets, D forms with d. No end group written: not given here. *: point of attachment. Biotin = O=C1N[C@H]2[C@H](CS[C@H]2CCCCC(=O)*)N1; Ahx = NCCCCCC(=O)O

Assay [1] concerns the target membranous CD40 on Burkitt's lymphoma cells (BL41, Raji) (UniProt P25942). Kind of assay: flow cytometry on BL41 cells, 2.5 µM biotinylated L41 developed with streptavidin-FITC; the control panel without streptavidin-FITC (BL41 L41 2.5 -SAvFITC) prints 1.3% for the same quadrant. (In general: In flow cytometry, cells or beads pass a laser one at a time.)
For assay [2] the target is unchanged. Kind of assay: flow cytometry on BL41 cells, 2.5 µM biotinylated L41 developed with streptavidin-FITC; the control panel without streptavidin-FITC (BL41 L41 2.5 -SAvFITC) prints 4.3% for the same quadrant.
Assay [3] has as its target recombinant CD40 associated with the constant part of the heavy chain of mouse IgG2a (human CD40 muIg fusion protein, ANCELL Corporation) (human; mouse) (UniProt P25942). Nature of the assay: SPR (BIAcore 3000): CD40 muIg captured by anti-mouse Ig, ligand injected as analyte. A general note: Surface plasmon resonance follows binding to a sensor surface in real time, without labels.

Assay [4] concerns the target T1, recombinant CD40 associated with the constant part of the heavy chain of mouse IgG2a (human CD40 muIg fusion … (human; mouse, UniProt P25942 21-193, limits assumed).
T1 construct: Bought reagent; Captured on the chip by rabbit antibodies against the constant part of mouse immunoglobulins; not shown: constant part of the heavy chain of mouse IgG2a
Described as above.

Sequence of membranous CD40 on Burkitt's lymphoma cells (BL41, Raji) (P25942 21-277 limits assumed): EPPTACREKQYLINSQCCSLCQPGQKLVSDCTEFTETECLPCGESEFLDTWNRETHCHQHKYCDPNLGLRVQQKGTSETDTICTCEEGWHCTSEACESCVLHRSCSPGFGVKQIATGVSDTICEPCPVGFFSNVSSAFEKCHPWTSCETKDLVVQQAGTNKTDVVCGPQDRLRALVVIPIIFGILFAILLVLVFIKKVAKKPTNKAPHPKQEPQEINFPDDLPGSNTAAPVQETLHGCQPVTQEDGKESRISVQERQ
T1 sequence (P25942 21-193 limits assumed): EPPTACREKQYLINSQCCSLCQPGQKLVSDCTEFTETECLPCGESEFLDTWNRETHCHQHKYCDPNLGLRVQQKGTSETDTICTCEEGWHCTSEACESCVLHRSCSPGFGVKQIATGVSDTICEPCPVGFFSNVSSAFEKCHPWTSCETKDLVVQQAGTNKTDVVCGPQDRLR
Sequence of recombinant CD40 associated with the constant part of the heavy chain of mouse IgG2a (human CD40 muIg fusion protein, ANCELL Corporation) (human; mouse) (P25942 21-193 limits assumed): as above

B1: L41 ligand (compound A), biotinylated (peptide)
peptide: KGYY[Ahx]
chain: [dA]K[dK](Biotin)K[dA]K
modifications: also: three KGYY-Ahx arms, each Ahx amide-linked to side-chain amines of Lys2, Lys4, Lys6 of the cyclic chain, head-to-tail to a chain's N/C-terminus
Molecule B1 had a % of cells in the upper right quadrant (FL1-H above the line, high FSC-H) in assay [1] of 23.5%. The molecule further displayed a % of cells in the upper left quadrant (FL1-H above the line, low FSC-H) in assay [2] of 10.2%. In addition, the Kd in assay [3] came to 28 nM.

B2: L40 ligand, compound of formula (III-e) (peptide)
peptide: H-K[dP]YY[Ahx]
chain: K[dA]K[dA]K[dA]
modifications: also: chain 2 cyclised head to tail, three chain-1 arms, each Ahx carboxyl amide-linked to one Lys side-chain amine of cyclic chain 2 (C3-symmetric trimer), head-to-tail to a chain's N/C-terminus
notes: Branched synthetic trimer with C3 symmetry: three pentapeptide arms on a cyclic hexapeptide
Consider B2, for which the Kd in assay [4] is 310 nM.

As usually defined, the Kd is the constant that tells how readily two partners part at equilibrium.
